This note sets out measurements from patent US20240299584A1, “NON-CODING RNA PROTECTING AGAINST HEART FAILURE” (MEDIZINISCHE HOCHSCHULE HANNOVER, priority 2019, published 2024).

One data set relates to apoptotic cardiomyocytes. Nature of the data set: TUNEL and cardiac troponin T co-staining of heart sections. The following applies: transversal heart sections, doxorubicin model; circINSR given as AAV9. It is filed as in vivo, mouse. The method, then:
(§1) In addition to apoptosis, doxorubicin is known to cause cardiomyocyte atrophy^12 (G). Thus, histopathology analyses were performed on transversal heart section.
Cells were fixed with 4% paraformaldehyde for twenty minutes at room temperature and then permeabilized with ice-cold 0.1% Triton-X-100 in PBS for two minutes at room temperature. Next cells were incubated with enzyme labelling solution provided with In Situ cell death detection kit (Roche) for 1 hour at 37° C. For negative staining, enzyme was not added to the labelling solution. Cells were then washed and incubated with Dapi for 15 minutes. To specifically label neonatal rat cardiomyocytes and hipsc-CM, cells were co-stained with cardiac Troponin T (Thermofisher) after Tunel staining. Images were taken with Nikon Eclipse Ti microscope and images were analyzed with NIS Elements. For analysis in each case, ten different images were analyzed from different regions and average value was taken. Similarly, cryosections of heart were also processed for staining. Numerous images covering complete heart section was taken and Tunel positive nuclei were counted in each field. Average value for each heart was calculated.

In another data set the test system is cardiomyocytes. Description: Cardiomyocyte size on wheat germ agglutinin stained heart sections. It is filed as in vivo, mouse. The following applies: WGA stained heart sections, doxorubicin model; circINSR given as AAV9. How it is done: as §1
Cryosections of heart were stained with Alexa Fluor 488 labelled wheat germ agglutinin (Invitrogen) and dapi. Images were taken with Nikon Eclipse Ti microscope and images were analyzed with NIS Elements. For each heart 5 to 10 images were randomly taken from different regions of the section and minimum two hundred cells were measured and average value was taken for each heart.

The subject of the next data set is HL-1 cells. Nature of the data set: mtDNA copy number measurement. The class given is cell-based, mouse. The following applies: doxorubicin 0.25 μM 48 h, circ-Insr by overexpression plasmid. The method, then:
Based on the results of the foregoing examples, it was reasoned that circ-Insr could interact with SSBP1. To further confirm the interaction between circ-Insr and SSBP1, siRNA mediated circ-Insr knock-down was applied in HL-1 cells. Next, RNA pulldown was performed with circ-Insr and scramble biotinylated probes. RT-qPCR confirmed that decrease of circ-Insr appeared both in input and circ-Insr pulldown group (FIG. 23A). […] Therefore, we assumed that circ-Insr is a cofactor of SSBP1 resulting in the regulation of mitochondrial function in cardiomyocytes by stabilizing mtDNA. […] Furthermore, mito-damage assay was applied to measure the changes in mitochondrial membrane potential (MMP). […] Next, we co-transfected HL-1 cells with pcDNA-circ-Insr and SSBP1 siRNA and examined cell viability using the WST assay to explore whether SSBP1 participated in the circ-Insr overexpression-mediated therapy of doxorubicin-cardiotoxicity. RT-qPCR indicated SSBP1 siRNA could downregulate endogenous SSBP1 expression (FIG. 23G).
The ratio of mtDNA to genomic DNA was calculated by dividing copies of CYTB with copies of ACTB in each experiment (Li J, Chan M C, Yu Y, Bei Y H, Chen P, Zhou Q L, et al. miR-29b contributes to multiple types of muscle atrophy. Nature communications. 2017; 8). […] Fluorescence was measured during the last step of each cycle using the SYBR channel. […]

B1: circINSR: circRNA formed through backsplicing of the second exon of the insulin receptor gene transcript; overexpressed from plasmid or AAV (nucleic acid, listed as Homo sapiens)
chain: UGUGUCCCGGCAUGGAUAUCCGGAACAACCUCACUAGGUUGCAUGAGCUGGAGAAUUGCUCUGUCAUCGAAGGACACUUGCAGAUACUCUUGAUGUUCAAAACGAGGCCCGAAGAUUUCCGAGACCUCAGUUUCCCCAAACUCAUCAUGAUCACUGAUUACUUGCUGCUCUUCCGGGUCUAUGGGCUCGAGAGCCUGAAGGACCUGUUCCCCAACCUCACGGUCAUCCGGGGAUCACGACUGUUCUUUAACUACGCGCUGGUCAUCUUCGAGAUGGUUCACCUCAAGGAACUCGGCCUCUACAACCUGAUGAACAUCACCCGGGGUUCUGUCCGCAUCGAGAAGAACAAUGAGCUCUGUUACUUGGCCACUAUCGACUGGUCCCGUAUCCUGGAUUCCGUGGAGGAUAAUUACAUCGUGUUGAACAAAGAUGACAACGAGGAGUGUGGAGACAUCUGUCCGGGUACCGCGAAGGGCAAGACCAACUGCCCCGCCACCGUCAUCAACGGGCAGUUUGUCGAACGAUGUUGGACUCAUAGUCACUGCCAGAAAG
modifications: circular RNA; RNA sequence
notes: circRNA formed through backsplicing of the second exon of the insulin receptor gene transcript; overexpressed from plasmid or AAV
Turning to B1, in the data set with apoptotic cardiomyocytes, the “apoptotic cardiomyocytes (TUNEL / cTNT)” value is “significantly blunted”. For the same molecule, the cardiomyocyte size result with cardiomyocytes is listed as “indistinguishable from control mice”. In addition, the “mtDNA copy number / mtDNA content” value in the data set on HL-1 cells was “reverse the decrease”.
